Biological target: T1, katanin p80 C-terminal domain (p80-CTD, aa 481-658 of mouse p80), 6xHis-tagged (mouse, UniProt Q8BG40 481-658)
T1 construct: katanin p80 subunit, mouse, C-terminal domain, residues 481-658; also called 6xHis-p80CTD; source: E. coli BL21(DE3), pET28a, co-expressed with p60-MIT, purified (IMAC, SEC); not shown: 6xHis, N-terminal, kept
Assay: AUC; sedimentation velocity of the co-purified p60-MIT:p80-CTD complex, 300 nM to 50 μM, 20 °C, 42,000 rpm, 20 mM HEPES pH 7.4, 150 mM NaCl, 2 mM 2-mercaptoethanol; apparent Kd estimated
Conditions: both partners purified

T1 sequence (Q8BG40 481-658): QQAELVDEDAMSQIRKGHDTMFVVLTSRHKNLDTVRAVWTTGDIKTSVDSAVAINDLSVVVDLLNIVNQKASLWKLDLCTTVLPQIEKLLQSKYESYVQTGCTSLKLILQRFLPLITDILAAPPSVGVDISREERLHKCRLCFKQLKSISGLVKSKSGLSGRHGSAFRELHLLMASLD

B1: katanin p60 MIT domain (p60-MIT, aa 1-78 of mouse p60), wild type (domain or fragment, UniProt Q9WV86 1-78, looked up)
chain: MSLQMIVENVKLAREYALLGNYDSAMVYYQGVLDQMNKYLYSVKDTHLRQKWQQVWQEINVEAKQVKDIMKTLESFKL
notes: katanin p60 subunit, mouse, N-terminal MIT domain, residues 1-78; Co-purified with m2 as the p60-MIT:6xHis-p80CTD complex; source: E. coli BL21(DE3), pET28a, co-expressed with 6xHis-p80-CTD, purified (IMAC, SEC)
stoichiometry N: 1

— publication PMC5668312, “Structural basis of katanin p60:p80 complex formation” (Scientific Reports, 2017)
